Data: US20090281035A1

Target: CD94-NKG2A-mFc singlechain (human)
Experiment: SPR, scCD94/NKG2A chip saturated with humZ270 10 µg/ml, then HLA-E tetramer 8 µg/ml (competitor: HLA-E tetramer)

CD94-NKG2A-mFc singlechain (human), sequence (chain, as listed by the source): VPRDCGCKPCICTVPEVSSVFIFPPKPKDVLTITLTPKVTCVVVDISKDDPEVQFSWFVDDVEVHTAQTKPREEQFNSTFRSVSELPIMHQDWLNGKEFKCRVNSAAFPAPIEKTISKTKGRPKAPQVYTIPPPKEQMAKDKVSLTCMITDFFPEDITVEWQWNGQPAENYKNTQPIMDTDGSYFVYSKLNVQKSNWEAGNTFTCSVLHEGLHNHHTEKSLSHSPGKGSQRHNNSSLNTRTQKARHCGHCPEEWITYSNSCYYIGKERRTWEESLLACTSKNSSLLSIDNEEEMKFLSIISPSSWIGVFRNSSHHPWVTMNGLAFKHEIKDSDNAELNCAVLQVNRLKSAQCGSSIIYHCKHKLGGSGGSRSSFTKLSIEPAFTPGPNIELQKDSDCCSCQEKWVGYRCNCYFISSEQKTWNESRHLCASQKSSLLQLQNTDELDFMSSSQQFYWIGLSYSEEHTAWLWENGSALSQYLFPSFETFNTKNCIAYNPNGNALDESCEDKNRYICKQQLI

percentage of inhibition of HLA-E tetramer binding: 81.8%
Substance: humZ270 (antibody)
